In patent US20150152159A1:

What follows are substances tested against human growth hormone receptor on IM-9 cells (human) (UniProt P10912) (assay: not given).
Chain of UniProt P10912 (P10912 19-638): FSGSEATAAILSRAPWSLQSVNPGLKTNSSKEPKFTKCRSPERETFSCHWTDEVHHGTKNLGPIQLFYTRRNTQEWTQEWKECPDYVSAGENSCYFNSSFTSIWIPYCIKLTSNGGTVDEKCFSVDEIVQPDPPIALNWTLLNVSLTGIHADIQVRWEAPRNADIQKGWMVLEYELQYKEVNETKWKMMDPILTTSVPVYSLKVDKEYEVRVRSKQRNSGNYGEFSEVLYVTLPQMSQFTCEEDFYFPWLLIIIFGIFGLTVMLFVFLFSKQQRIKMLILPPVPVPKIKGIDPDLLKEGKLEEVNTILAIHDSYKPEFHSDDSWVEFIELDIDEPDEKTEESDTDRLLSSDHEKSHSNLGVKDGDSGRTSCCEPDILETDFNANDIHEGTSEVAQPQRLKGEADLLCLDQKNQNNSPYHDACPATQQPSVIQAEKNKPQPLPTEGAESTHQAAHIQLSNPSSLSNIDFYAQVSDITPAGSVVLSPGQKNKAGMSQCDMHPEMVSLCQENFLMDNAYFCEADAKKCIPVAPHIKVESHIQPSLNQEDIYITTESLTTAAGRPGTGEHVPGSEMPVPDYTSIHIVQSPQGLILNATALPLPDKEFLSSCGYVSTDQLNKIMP

| Substance | EC50, STAT5 phosphorylation in IM-9 cells (MFI of PE, intracellular phospho-STAT5 staining) |
| --- | --- |
| (His)F92-pAF-30K (ligand) | 4.1 nM |
| (His)F92pAF-20K (from UniProt P09466) (ligand) | 4.6 nM |
| hGH F92pAF (from UniProt P01241 27-217) (ligand) | 0.9 nM |
| (His)F92pAF-5K (from UniProt P09466) (ligand) | 1.5 nM |

Each substance was assayed against human growth hormone receptor on IM-9 cells (human) (UniProt P10912) (assay: cell-based or functional assay).

| EC50 (nM), STAT5 phosphorylation in IM-9 cells | Substance |
| --- | --- |
| 2 nM | hGH Q91pAF (from UniProt P01241 27-217) (ligand) |
| 2.7 nM | hGH K140pAF (from UniProt P01241 27-217) (ligand) |
| 0.8 nM | hGH G131pAF (from UniProt P01241 27-217) (ligand) |
| > 200000 nM | rat GH WT (from UniProt P01244 27-216) (ligand) |
| 0.9 nM | hGH R134pAF (from UniProt P01241 27-217) (ligand) |
| 0.9 nM | hGH E88pAF (from UniProt P01241 27-217) (ligand) |
| 0.8 nM | hGH F92pAF (from UniProt P01241 27-217) (ligand) |
| 1.3 nM | hGH A155pAF (from UniProt P01241 27-217) (ligand) |

Second part, the substance before the results:

| Substance | EC50 (nM), STAT5 phosphorylation in IM-9 cells |
| --- | --- |
| His-tagged hGH Y143pAF (from UniProt P01241 27-217) (ligand) | 0.8 nM |
| hGH T135pAF (from UniProt P01241 27-217) (ligand) | 0.9 nM |
| hGH P133pAF (from UniProt P01241 27-217) (ligand) | 1 nM |
| hGH F139pAF (from UniProt P01241 27-217) (ligand) | 3.3 nM |
| hGH N99pAF (from UniProt P01241 27-217) (ligand) | 8.5 nM |
| hGH S95pAF (from UniProt P01241 27-217) (ligand) | 16.7 nM |
| hGH G136pAF (from UniProt P01241 27-217) (ligand) | 1.4 nM |
| hGH Y103pAF (from UniProt P01241 27-217) (ligand) | 130000 nM |
| hGH Y111pAF (from UniProt P01241 27-217) (ligand) | 1 nM |

Biological target: human growth hormone receptor on IM-9 cells (human) (UniProt P10912)
Assay: not given
Remark: another data set of the same source

| Substance | EC50, STAT5 phosphorylation in IM-9 cells (MFI of PE, intracellular phospho-STAT5 staining) |
| --- | --- |
| hGH F92pAF (from UniProt P01241 27-217) (ligand) | 1.1 nM |
